Results as given in paper PMC3265493, “Inhibitory Potential of Prodomain of Plasmodium falciparum Protease Serine Repeat Antigen 5 for Asexual Blood Stages of Parasite” (PLoS ONE, 2012).

Target: T1, SERA5 catalytic domain (SERA5 C) (Plasmodium falciparum 3D7, UniProt Q9TY95 578-828)
T1 construct: Plasmodium falciparum 3D7 serine repeat antigen 5 (SERA5), PlasmoDB PFB0340c, 251-residue enzyme (catalytic) domain E578 to N828, amplified from cDNA; Cloned in pProExHTb between BamHI and XhoI with N-terminal hexahistidine tag; no tag removal is described; also called enzyme domain
T1 sequence: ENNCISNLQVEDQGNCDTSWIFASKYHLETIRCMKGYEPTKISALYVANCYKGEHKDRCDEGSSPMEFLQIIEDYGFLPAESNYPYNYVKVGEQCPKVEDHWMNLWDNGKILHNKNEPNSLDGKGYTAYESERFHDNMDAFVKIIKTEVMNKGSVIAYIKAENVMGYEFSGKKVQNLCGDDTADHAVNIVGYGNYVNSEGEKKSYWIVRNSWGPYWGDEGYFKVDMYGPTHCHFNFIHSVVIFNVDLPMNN
Experiment: CD spectroscopy; CD spectra of SERA5 C (5 uM) in PBS pH 7.4 alone and with 5 uM peptide (1:1 molar ratio), 25 C
Details: both partners purified

B1: heptapeptide DNSDNMF (D560 to F566 of SERA5 sequence) (peptide)
peptide: DNSDNMF
notes: C-terminal region of the prodomain of Plasmodium falciparum serine repeat antigen 5 (SERA5), residues D560 to F566; Made on Rink amide resin, so the C-terminus is probably an amide; also called the heptapeptide; the peptide; source: synthetic peptide (solid phase, Fmoc chemistry, Rink Amide MHBA resin; RP-HPLC purified)
binding result: binds
